From patent publication US20230235039A1 (REGENECORE BIOTECH, published 2023) come the findings set out here.

The chains are these.
B1: humanized Fc-fused single-domain antibody 2B3-V2 (Fc fusion, not shown: a dimerising Fc or GST)
chain (part 1 of 2): QVQLVESGGGSVQAGGSLRLSCAASGNTFSFSTYCMGWFRQSPGKEREGSLATIYDASTAYAGSVKGRFTISRDNSKNILYLQMNNLRAEDTAVYYCAAARYCMFWSHPSYWGQGTQVTVSS
chain (part 2 of 2): HHHHHH
notes: Humanized variant of 2B3; vector RJK-V4-hFC
B2: Fc fusion protein of anti-IL-5 single-domain antibody 2B3 (Fc fusion, not shown: a dimerising Fc or GST)
chain (part 1 of 2): QVQLVESGGGSVQAGGSLRLSCAASGNTFSFSTYCMGWFRQSPGKEREGSLATIYDGSTAYAGSVKGRFTISVDNAKNILYLQMNNLKPEDTAMYYCAAAKYCMFWSDPSYWGQGTQVTVSS
chain (part 2 of 2): HHHHHH
notes: Vector RJK-V4-hFC; also called clone 2B3
B3: humanized Fc-fused single-domain antibody 1B3-V2 (Fc fusion, not shown: a dimerising Fc or GST)
chain (part 1 of 2): QVQLVESGGGSVQAGGSLRLSCAASGITASTSCMGWFRQSPGKEREGSLATIYDASTSYADSVKGRFTISRDNSKNILYLQMNNLRAEDTAVYYCAAARYCMFWSHPSYWGQGTQVTVSS
chain (part 2 of 2): HHHHHH
notes: Humanized variant of 1B3; vector RJK-V4-hFC
B4: Fc fusion protein of anti-IL-5 single-domain antibody 1B3 (Fc fusion, not shown: a dimerising Fc or GST)
chain (part 1 of 2): QVQLVESGGGSVQAGGSLRLSCAASGITASTSCMGWFRQSPGKEREGSLATIYDGSTSYADSVKGRFTISVDNAKNILYLQMNNLKPEDTAMYYCAAAKYCMFWSHPSYWGQGTQVTVSS
chain (part 2 of 2): HHHHHH
notes: Vector RJK-V4-hFC; Embodiments name a human IgG4 Fc; also called clone 1B3
B5: single-domain antibody 1B3 (VHH, expressed in E. coli) (VHH)
VHH: QVQLVESGGGSVQAGGSLRLSCAASGITASTSCMGWFRQSPGKEREGSLATIYDGSTSYADSVKGRFTISVDNAKNILYLQMNNLKPEDTAMYYCAAAKYCMFWSHPSYWGQGTQVTVSS
notes: pMECS-VHH expressed in E. coli HB2151, purified on Ni-column; not shown: C-terminal tags from vector pMECS (HA tag, and the His tag implied by Ni-column purification)
B6: single-domain antibody 1B8 (VHH, expressed in E. coli) (VHH)
VHH: QVQLVESGGGSVQAGGSLRLSCAASGITASTSCMGWFRQSPGKEREGSLATIYDGSTSYADSVKGQFTISVDNAKNILYLQMNNLKPEDTAMYYCAAAKYCMFWSHPSYWGQGTQVTVSS
notes: as for B5

The first assay addresses T1, human recombinant IL-5 protein with a histidine tag at carboxyl terminal (human, UniProt P05113 20-134).
T1 construct: range 20-134; Expressed in 293F cells; also called hrIL-5-cHis; human IL-5 protein; not shown: histidine tag at carboxyl terminal
Kind of assay: BLI (Octet 96), binding molecule on sensor, IL-5 antigen 200 nM and 2-fold dilutions. How it is done: Formulation of SD buffer: A proper amount of bovine serum albumin and Tween 20 were dissolved in 1×PBS (pH 7.4), so that the mass (or volume) fractions of bovine serum albumin and Tween 20 were 0.1% and 0.02% respectively. The IL-5 binding molecule was formulated in the SD buffer to a concentration of 10 μg/mL. Formulation of antigen working solution: the antigen was formulated in the SD buffer to 200 nM, and then diluted by a 2-fold gradient in a total of 5 concentration gradients. In addition, a blank control of SD buffer was also provided. A proper amount of 0.1M glycine stock solution was diluted by 10-fold in deionized water and mixed uniformly, to obtain a regeneration solution. Octet 96 and the Data Acquisition software in its supporting computer were run. The bottom and side of the acquisition probe were cleaned using a lens tissue with a proper amount of 75% ethanol. The instrument was pre-warmed for 15 min or more. Sensor pre-wetting: sensor was soaked in the SD buffer for 10 min or more before the assay. Then, the machine procedure was set according to baseline→antibody→baseline→binding antigen→dissociating antigen→regenerating sensor for assay operation.
On the technique in general: In BLI a coated tip is dipped into the sample, and binding shifts an interference pattern.
As to B1, the dissociation constant (Kd) (in general, the free concentration of one partner at which half of the binding sites on the other are occupied at equilibrium, for simple one-to-one binding) came out at 2.06 nM; the koff (as a rule, a measure of how fast the partners let go of each other) came out at 0.000406 s⁻¹; the kon – broadly, a measure of how fast the partners come together – was determined as 197000 M⁻¹ s⁻¹.
For B2, in that order: 1.6 nM, 0.000295 s⁻¹ and 184000 M⁻¹ s⁻¹.
With B3, the Kd came out at 1.02 nM, the koff was determined as 0.000184 s⁻¹ and the kon came out at 180000 M⁻¹ s⁻¹.
Turning to B4, the Kd was 0.88 nM, the koff was determined as 0.000132 s⁻¹ and the kon was 149000 M⁻¹ s⁻¹.

The target in the next assay is T1, human recombinant IL-5 protein with a …. Kind of assay: ELISA, IL-5 protein coated on the plate, VHH titrated, anti-HA tag HRP secondary antibody, OD450. As for the experimental part: 50 μL of 1 μg/mL IL-5 protein was coated on an ELISA plate at 4° C. overnight. The plate was washed. 200 μL of 5% milk was added for blocking at 37° C. for 1 h. The IL-5 protein-specific single-domain antibody (VHH) obtained in Example 1 was diluted to 2 μg/mL, and then diluted by a 5-fold gradient, in a total of 8 concentration gradients. The plate was washed. 50 μL of antibody was added in duplicate wells, and then incubated at 37° C. for 1 h. The plate was washed. 50 μL of mouse anti-HA tag HRP secondary antibody was added, and then incubated at 37° C. for 30 min. The plate was washed (for multiple times). 50 μL of TMB that had been restored to room temperature was added to react at room temperature in the dark for 15 min. 50 µL of stopping solution (1N HCl) was added. The resultant was measured using a microplate reader and then recorded. The curve was plotted.
A general note: In an ELISA, binding on a coated surface is turned into a signal by an enzyme label.
Turning to B5, the EC50 (read off the curve) (commonly the concentration needed to bring the measured effect to its halfway point) was approximately 6 nM.
Still for that read-out and setting: under B6 stands approximately 4 nM.
